Results taken from IntAct's records for PubMed 12606577.

Columns and labels:
par6b_mouse Pard6b = par6b_mouse Pard6b (UniProt Q9JK83)
pak1_human PAK1 = pak1_human PAK1 (UniProt Q13153)
Sequence of pak1_human PAK1 (Q13153 whole entry): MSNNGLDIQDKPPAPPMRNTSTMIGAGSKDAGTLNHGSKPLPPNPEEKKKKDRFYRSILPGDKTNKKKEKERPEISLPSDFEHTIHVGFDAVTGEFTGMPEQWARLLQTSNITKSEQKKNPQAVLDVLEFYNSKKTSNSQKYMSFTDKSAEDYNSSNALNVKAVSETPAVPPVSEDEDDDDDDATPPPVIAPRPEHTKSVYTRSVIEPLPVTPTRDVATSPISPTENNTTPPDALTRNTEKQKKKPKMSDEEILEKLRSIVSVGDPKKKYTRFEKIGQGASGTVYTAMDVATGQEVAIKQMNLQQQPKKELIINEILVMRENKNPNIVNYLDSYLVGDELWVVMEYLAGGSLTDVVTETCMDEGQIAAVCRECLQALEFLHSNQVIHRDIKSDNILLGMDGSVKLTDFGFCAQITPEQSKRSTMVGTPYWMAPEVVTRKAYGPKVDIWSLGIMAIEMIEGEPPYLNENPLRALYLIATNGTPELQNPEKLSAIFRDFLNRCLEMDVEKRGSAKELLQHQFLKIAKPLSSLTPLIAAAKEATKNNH

Sequence of par6b_mouse Pard6b (Q9JK83 whole entry): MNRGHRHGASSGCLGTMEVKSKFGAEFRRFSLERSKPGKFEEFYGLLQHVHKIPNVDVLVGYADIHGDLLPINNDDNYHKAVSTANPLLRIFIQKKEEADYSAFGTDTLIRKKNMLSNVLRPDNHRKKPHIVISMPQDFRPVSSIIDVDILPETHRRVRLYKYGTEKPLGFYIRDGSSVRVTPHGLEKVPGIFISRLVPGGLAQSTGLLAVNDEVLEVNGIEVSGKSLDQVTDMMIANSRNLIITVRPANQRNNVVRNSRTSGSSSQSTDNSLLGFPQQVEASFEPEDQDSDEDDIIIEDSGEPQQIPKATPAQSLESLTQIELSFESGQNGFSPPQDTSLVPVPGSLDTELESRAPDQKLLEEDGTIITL
Sequence of Cell division control protein 42 homolog (Homo sapiens), P60953 Y40K (P60953 whole entry Y40K): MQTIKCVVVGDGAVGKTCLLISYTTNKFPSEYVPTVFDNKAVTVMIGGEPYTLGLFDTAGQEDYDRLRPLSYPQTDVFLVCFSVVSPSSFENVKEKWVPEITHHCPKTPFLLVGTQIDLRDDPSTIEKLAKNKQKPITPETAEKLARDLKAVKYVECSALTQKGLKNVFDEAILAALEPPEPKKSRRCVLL
Sequence of Cell division control protein 42 homolog (Homo sapiens), P60953 D38A (P60953 whole entry D38A): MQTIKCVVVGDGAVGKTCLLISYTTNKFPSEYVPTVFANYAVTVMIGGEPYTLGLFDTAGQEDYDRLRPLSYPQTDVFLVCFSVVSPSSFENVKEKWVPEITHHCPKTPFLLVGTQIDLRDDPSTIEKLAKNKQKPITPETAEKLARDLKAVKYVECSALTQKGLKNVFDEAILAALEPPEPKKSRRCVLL
Sequence of Cell division control protein 42 homolog (Homo sapiens), P60953 F37A (P60953 whole entry F37A): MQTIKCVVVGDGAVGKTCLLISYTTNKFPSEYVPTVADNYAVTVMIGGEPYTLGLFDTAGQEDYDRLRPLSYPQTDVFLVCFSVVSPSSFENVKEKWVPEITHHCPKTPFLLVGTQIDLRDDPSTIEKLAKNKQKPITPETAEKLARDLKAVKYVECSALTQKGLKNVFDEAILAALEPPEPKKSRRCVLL

Row | Substance | effect of a mutation on the interaction (par6b_mouse Pard6b) | effect of a mutation on the interaction (pak1_human PAK1)
1 | Cell division control protein 42 homolog (Homo sapiens), P60953 Y40K | decreasing interaction | decreasing interaction
2 | Cell division control protein 42 homolog (Homo sapiens), P60953 D38A | decreasing interaction | decreasing interaction
3 | Cell division control protein 42 homolog (Homo sapiens), P60953 F37A | decreasing interaction | –
